The results in this text go back to patent US20060160994A1 (STICHTING SANQUIN BLOEDVOORZIENING, published 2006).

Assay [1] concerns the target T1, low density lipoprotein receptor-related protein (LRP), purified and immobilized (UniProt Q07954 20-4544, limits assumed).
T1 construct: Purified LRP, amine-coupled to a CM5 sensor chip; also called low density lipoprotein receptor protein; alpha2-macroglobulin receptor
Nature of the assay: SPR, LRP immobilized (6.7 fmol/mm^2), two classes of binding sites, class A. How it is done:
(§1) This method is generally known in the art and was employed for the kinetic analysis of the interaction between LRP and receptor-associated protein (RAP) (Hom I, in LRP-ligand interactions: kinetics and structural requirements; Ph.D. thesis, 1997, pp. 65-106, Amsterdam University). […] Subsequently, the channels were incubated with the same buffer at a similar flow so as to enable dissociation.
(§2) The data were analyzed by means of Biacore Evaluation Software (Pharmacia Biosensor AB, Uppsala, Sweden). […] The association and dissociation speed constants (kₒₙ and koff, respectively) were calculated for the two binding sites. These speed constants were subsequently used to obtain the affinity constants (Kd) for these interactions.
Background: In SPR one partner is held on a chip, and binding of the other changes the refractive index at the surface.

Assay [2] deals with T1, low density lipoprotein …. Nature of the assay: SPR, LRP immobilized (6.7 fmol/mm^2), two classes of binding sites, class A; Kd = koff/kon. How it is done: as §1, §2
Assay [3] deals with T1, low density lipoprotein …. As to the kind of experiment: SPR, LRP immobilized (6.7 fmol/mm^2), two classes of binding sites, class B; Kd = koff/kon. How it is done:
as §1, §2

The target of assay [4] is T1, low density lipoprotein …. Nature of the assay: SPR, LRP immobilized (6.7 fmol/mm^2), two classes of binding sites, class B. How it is done:
as §1, §2

Broadly, the koff is a measure of how fast the partners let go of each other. As usually defined, the kon is the rate constant with which the complex forms. Read a high kon as fast association. As usually defined, the Kd is the free concentration of one partner at which half of the binding sites on the other are occupied at equilibrium, for simple one-to-one binding. A low value points to tighter binding.

T1 sequence (Q07954 20-4544 limits assumed, form in doubt): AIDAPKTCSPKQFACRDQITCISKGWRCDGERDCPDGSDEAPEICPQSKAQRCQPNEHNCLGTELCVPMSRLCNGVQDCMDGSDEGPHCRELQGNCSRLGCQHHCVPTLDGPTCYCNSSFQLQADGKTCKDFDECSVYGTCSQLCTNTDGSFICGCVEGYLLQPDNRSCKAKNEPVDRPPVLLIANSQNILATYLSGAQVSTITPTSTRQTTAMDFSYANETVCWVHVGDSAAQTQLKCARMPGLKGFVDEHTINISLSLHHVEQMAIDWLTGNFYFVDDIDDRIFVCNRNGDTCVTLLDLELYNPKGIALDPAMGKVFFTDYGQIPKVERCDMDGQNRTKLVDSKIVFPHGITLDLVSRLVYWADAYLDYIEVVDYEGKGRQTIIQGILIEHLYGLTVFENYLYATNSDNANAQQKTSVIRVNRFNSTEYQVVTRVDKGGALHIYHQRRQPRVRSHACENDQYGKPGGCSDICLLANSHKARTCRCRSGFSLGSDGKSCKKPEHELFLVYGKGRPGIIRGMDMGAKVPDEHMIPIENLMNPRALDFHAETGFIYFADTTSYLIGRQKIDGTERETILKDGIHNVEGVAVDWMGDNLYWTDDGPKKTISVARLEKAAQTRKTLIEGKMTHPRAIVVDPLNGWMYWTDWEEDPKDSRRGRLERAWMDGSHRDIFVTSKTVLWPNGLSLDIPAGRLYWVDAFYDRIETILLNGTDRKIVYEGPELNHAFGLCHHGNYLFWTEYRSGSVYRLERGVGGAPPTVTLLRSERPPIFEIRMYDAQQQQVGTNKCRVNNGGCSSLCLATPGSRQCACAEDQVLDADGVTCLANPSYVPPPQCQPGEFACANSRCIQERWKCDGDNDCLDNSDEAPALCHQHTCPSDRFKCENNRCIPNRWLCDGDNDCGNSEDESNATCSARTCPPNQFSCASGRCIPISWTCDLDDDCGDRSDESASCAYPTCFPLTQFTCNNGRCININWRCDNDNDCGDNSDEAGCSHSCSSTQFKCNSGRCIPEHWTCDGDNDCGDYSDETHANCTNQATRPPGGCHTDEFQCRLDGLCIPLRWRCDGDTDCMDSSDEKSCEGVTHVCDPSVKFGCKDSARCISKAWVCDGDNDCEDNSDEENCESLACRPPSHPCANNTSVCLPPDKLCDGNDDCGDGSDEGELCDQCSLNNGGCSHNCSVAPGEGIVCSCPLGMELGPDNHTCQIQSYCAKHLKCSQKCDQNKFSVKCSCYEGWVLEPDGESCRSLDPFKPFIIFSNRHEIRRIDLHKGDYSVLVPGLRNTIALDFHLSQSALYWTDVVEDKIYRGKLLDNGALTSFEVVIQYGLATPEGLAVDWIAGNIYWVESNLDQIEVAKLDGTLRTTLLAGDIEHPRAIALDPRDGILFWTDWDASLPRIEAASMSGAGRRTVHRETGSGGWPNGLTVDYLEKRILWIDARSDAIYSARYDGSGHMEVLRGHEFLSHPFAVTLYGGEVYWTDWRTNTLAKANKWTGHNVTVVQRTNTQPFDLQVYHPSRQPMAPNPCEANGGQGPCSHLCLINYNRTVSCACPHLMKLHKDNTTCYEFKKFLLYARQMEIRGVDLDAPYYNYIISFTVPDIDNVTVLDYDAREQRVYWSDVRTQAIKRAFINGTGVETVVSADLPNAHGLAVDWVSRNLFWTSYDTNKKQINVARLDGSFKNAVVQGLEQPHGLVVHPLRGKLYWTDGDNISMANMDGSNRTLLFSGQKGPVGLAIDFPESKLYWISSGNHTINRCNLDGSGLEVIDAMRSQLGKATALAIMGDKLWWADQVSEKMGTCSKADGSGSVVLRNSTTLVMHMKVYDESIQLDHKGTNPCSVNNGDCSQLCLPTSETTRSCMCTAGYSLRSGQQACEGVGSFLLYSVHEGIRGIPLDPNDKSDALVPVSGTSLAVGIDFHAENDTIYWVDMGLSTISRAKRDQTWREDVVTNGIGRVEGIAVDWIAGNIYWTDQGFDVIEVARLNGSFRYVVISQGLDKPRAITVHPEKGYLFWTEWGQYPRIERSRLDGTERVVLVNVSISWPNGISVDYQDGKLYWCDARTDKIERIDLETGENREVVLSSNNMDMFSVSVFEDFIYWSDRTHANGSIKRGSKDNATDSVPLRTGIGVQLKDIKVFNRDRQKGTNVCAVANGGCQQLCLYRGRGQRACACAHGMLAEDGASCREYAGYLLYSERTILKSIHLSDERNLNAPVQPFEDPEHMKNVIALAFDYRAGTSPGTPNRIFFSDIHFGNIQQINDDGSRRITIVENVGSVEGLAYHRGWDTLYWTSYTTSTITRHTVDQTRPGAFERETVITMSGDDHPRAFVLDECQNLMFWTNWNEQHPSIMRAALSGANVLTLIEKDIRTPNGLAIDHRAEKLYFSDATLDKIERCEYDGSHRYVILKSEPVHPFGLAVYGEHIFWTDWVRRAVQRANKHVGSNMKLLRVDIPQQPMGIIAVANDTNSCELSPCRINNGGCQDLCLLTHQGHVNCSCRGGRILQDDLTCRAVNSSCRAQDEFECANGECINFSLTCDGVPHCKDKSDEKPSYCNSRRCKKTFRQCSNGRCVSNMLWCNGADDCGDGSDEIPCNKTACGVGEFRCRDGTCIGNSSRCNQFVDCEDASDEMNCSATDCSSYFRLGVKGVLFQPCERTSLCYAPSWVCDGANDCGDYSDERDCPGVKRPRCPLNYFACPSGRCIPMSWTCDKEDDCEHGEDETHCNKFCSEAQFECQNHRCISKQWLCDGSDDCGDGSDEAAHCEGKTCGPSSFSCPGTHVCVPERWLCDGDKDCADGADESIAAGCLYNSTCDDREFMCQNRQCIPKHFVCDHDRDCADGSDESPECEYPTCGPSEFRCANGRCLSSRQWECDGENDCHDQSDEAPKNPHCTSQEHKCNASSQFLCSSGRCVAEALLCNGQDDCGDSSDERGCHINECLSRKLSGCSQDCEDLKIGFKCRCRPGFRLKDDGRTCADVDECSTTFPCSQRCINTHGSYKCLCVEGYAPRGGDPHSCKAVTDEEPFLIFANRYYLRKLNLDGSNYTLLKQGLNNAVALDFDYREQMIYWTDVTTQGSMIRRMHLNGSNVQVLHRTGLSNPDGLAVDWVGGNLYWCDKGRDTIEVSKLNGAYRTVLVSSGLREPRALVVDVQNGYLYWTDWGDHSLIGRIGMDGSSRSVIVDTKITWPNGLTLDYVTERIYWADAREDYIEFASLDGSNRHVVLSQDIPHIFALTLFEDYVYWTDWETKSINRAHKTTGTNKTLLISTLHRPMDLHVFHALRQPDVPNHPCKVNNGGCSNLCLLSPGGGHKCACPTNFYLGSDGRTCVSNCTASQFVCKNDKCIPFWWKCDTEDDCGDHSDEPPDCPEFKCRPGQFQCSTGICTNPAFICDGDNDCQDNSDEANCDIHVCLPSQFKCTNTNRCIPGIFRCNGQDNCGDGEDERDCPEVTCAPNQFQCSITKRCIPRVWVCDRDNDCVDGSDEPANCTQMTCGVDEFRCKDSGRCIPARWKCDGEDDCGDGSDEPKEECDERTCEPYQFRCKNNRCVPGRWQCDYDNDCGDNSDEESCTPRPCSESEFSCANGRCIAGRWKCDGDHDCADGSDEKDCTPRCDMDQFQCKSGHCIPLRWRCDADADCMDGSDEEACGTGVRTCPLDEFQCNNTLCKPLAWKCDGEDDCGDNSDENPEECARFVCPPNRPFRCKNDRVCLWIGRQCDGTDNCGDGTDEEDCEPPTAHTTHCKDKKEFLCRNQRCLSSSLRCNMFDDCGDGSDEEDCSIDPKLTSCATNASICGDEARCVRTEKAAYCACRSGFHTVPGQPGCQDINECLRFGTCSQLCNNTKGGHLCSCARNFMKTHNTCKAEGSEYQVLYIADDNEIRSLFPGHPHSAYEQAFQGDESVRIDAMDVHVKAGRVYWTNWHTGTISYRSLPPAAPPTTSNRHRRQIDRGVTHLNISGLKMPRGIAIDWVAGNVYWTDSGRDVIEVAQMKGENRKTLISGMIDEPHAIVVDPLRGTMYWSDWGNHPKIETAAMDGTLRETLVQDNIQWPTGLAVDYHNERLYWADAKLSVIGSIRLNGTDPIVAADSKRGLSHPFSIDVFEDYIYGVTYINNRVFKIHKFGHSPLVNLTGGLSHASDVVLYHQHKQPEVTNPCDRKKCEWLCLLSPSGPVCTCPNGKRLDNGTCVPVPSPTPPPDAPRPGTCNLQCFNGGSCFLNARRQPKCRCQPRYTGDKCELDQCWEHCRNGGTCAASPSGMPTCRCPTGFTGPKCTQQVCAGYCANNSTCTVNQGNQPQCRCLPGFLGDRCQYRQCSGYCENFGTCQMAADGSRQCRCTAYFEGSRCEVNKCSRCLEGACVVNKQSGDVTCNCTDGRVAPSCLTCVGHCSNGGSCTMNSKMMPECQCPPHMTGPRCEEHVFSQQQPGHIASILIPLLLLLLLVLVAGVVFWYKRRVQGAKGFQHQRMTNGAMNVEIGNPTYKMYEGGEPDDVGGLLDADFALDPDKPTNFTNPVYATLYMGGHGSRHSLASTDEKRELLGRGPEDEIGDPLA

B1: light chain of Factor VIII (other)
chain: EITRTTLQSDQEEIDYDDTISVEMKKEDFDIYDEDENQSPRSFQKKTRHYFIAAVERLWDYGMSSSPHVLRNRAQSGSVPQFKKVVFQEFTDGSFTQPLYRGELNEHLGLLGPYIRAEVEDNIMVTFRNQASRPYSFYSSLISYEEDQRQGAEPRKNFVKPNETKTYFWKVQHHMAPTKDEFDCKAWAYFSDVDLEKDVHSGLIGPLLVCHTNTLNPAHGRQVTVQEFALFFTIFDETKSWYFTENMERNCRAPCNIQMEDPTFKENYRFHAINGYIMDTLPGLVMAQDQRIRWYLLSMGSNENIHSIHFSGHVFTVRKKEEYKMALYNLYPGVFETVEMLPSKAGIWRVECLIGEHLHAGMSTLFLVYSNKCQTPLGMASGHIRDFQITASGQYGQWAPKLARLHYSGSINAWSTKEPFSWIKVDLLAPMIIHGIKTQGARQKFSSLYISQFIIMYSLDGKKWQTYRGNSTGTLMVFFGNVDSSGIKHNIFNPPIIARYIRLHPTHYSIRSTLRMELMGCDLNSCSMPLGMESKAISDAQITASSYFTNMFATWSPSKARLHLQGRSNAWRPQVNNPKEWLQVDFQKTMKVTGVTTQGVKSLLTSMYVKEFLISSSQDGHQWTLFFQNGKVKVFQGNQDSFTPVVNSLDPPLLTRYLRIHPQSWVHQIALRMEVLGCEAQDLY
notes: also called Factor VIII light chain
For the molecule B1, the values for the koff in assay [1] and in assay [4] were 0.055 s⁻¹ and 0.0027 s⁻¹, respectively. In addition, the kon stood at 300000 M⁻¹ s⁻¹ in assay [1] and 72000 M⁻¹ s⁻¹ in assay [4]. Moreover, the Kd stood at 182 nM in assay [2] and 37 nM in assay [3].
